Reference: patent publication US7422862B2, “Methods for identifying modulators of apoptosis” (The Burnham Institute, priority 2001, dated 2008)

Tests used:
Bax (S184K) = molecular target: T1, Bax (S184K) (Mus musculus, UniProt Q07813, S184K); assay: Yeast two-hybrid assay; format: binding; conditions: EGY48 cells, pGilda-Bax (S184K) and pYESTrp-Humanin
T1 construct: expressed in transfected cells; host or cells: S. cerevisiae EGY48
Source text: A yeast two-hybrid system is designed to screen a cDNA library for a gene encoding a polypeptide that interacts with a known target (bait) polypeptide (Golemis, et al., In Current Protocols in Molecular Biology, John Wiley & Sons, Inc., Ch.20.0 and 20.1.(1996); Mendelsohn and Brent, Current Opinion in Biotechnology 5:482-486 (1994)). In this experiment, a S184K (a serine at position 184 in the transmembrane domain mutated to a lysine) mutant of mouse Bax was used as a bait, since the wild type Bax induces cell death in yeast.
Bax (S184K) cDNA was constructed in a pgilda yeast expression vector at EcoRV Xhol sites, producing a LexA-Bax fusion polypeptide. The prokaryotic LexA polypeptide, which functions as the DNA binding domain and binds to LexA operators, was used. A human adult testes cDNA library in a pYESTrp vector was purchased from Invitrogen. This library contains library cDNA fused with a B42 transcription activation domain (an 88-residue acidic E. coli peptide). The pGilda-Bax (S184K) and cDNA library plasmids were co-transfected into EGY48 yeast cells together with a reporter plasmid pSH18-34. The transformants were cultured on leucine-deficient galactose-containing media, which induces gene expression through the GAL1 promoter located within both the pGilda and pYESTrp vectors. […]

Bak = molecular target: T2, Bak (Homo sapiens, UniProt Q16611); assay: Bak-induced apoptosis in transfected cells; format: cell-based; parameters: expressed in transfected cells; conditions: CSM14.1 or PC-3 cells, transient co-transfection
T2 sequence (Q16611 1-211): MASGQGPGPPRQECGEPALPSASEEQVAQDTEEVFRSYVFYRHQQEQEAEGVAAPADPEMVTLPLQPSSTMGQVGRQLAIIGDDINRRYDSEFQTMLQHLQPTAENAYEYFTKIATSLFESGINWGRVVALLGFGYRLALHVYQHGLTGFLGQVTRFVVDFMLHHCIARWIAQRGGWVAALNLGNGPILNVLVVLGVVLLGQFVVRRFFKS
Protocol: (A-D) CMS14.1 neuronal cells were transfected with plasmids encoding Flag-HN peptide or Flag-control (27-amino-acid) peptide, together with GFP-encoding plasmid at 4:1 ratio. Cells were either cultured without further treatment (open bars) or subjected to various apoptotic stimuli for various times (dark bars), including (A) STS for 8 h (dark symbols=Flag-control; open symbols=Flag-HN), (B) Serum-deprivation for 72 h, (C) 10 joules/m2 Uvirradiation followed by 24 h culture, and (D) 50 ng/ml TNFa in […] for 24 h. Cells were then fixed and stained with DAPI to determine the percentage of apoptotic cells, evaluating=200 GFP-positive cells per sample (mean±SD; n=3). (inset) Lysates prepared from replicate cultures of transfected cells were normalized for total protein content and analyzed by immunoblotting using anti-Flag (top) and anti-tubulin (bottom) antibodies, confirming production of similar amounts of Flag-control and Flag-HN peptides. […] (Upper panel) After 72 hr, cell lysates were prepared and 100 ug was analyzed by immunoblotting using anti-HN and anti-tubulin (as a loading control) antibodies. (Lower panel) At 72 hr after siRNA transfection, SF268 cells were cultured with 0.1 μM STS for 8 hrs, then % apoptosis was determined (mean+std dev; n=3). […] Apoptosis (%) was measured 48 hrs later among GFP-positive cells. […]

T1 sequence (Q07813 whole entry S184K): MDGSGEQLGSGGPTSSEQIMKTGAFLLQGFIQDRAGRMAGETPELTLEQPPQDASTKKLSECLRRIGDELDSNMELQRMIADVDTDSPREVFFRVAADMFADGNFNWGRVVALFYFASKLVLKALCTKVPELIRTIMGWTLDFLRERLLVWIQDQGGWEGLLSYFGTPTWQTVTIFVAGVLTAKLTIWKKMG

Bak-induced apoptosis (Bak)	Substance	yeast growth on Leu-deficient media (two-hybrid interaction) (Bax (S184K))
–	Humanin: 24 amino acid polypeptide, cytosolic form of human Humanin (SEQ ID NO:2); used as synthetic peptide or expressed fusion	grew on Leu-media
not affected	GFP-HN: Wild-type full-length Humanin fused to Green Fluorescent Protein	–
